From US20140274782A1 (Stanford University, published 2014) come the findings set out here.

Common to all, as to assay: ProtoArray, GST-treated control array;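 further: human protein microarray (about 9500 recombinant proteins) incubated overnight with GST alone plus SAM cofactor as the negative control for G9a SET domain methylation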
The target of experiment [1] is T1, GNPTAB-N-acetylglucosamine-1-phosphate transferase, alpha and beta subunits (GNPTAB) (human, UniProt Q3T906 1-1256, limits assumed).
T1 sequence (looked up): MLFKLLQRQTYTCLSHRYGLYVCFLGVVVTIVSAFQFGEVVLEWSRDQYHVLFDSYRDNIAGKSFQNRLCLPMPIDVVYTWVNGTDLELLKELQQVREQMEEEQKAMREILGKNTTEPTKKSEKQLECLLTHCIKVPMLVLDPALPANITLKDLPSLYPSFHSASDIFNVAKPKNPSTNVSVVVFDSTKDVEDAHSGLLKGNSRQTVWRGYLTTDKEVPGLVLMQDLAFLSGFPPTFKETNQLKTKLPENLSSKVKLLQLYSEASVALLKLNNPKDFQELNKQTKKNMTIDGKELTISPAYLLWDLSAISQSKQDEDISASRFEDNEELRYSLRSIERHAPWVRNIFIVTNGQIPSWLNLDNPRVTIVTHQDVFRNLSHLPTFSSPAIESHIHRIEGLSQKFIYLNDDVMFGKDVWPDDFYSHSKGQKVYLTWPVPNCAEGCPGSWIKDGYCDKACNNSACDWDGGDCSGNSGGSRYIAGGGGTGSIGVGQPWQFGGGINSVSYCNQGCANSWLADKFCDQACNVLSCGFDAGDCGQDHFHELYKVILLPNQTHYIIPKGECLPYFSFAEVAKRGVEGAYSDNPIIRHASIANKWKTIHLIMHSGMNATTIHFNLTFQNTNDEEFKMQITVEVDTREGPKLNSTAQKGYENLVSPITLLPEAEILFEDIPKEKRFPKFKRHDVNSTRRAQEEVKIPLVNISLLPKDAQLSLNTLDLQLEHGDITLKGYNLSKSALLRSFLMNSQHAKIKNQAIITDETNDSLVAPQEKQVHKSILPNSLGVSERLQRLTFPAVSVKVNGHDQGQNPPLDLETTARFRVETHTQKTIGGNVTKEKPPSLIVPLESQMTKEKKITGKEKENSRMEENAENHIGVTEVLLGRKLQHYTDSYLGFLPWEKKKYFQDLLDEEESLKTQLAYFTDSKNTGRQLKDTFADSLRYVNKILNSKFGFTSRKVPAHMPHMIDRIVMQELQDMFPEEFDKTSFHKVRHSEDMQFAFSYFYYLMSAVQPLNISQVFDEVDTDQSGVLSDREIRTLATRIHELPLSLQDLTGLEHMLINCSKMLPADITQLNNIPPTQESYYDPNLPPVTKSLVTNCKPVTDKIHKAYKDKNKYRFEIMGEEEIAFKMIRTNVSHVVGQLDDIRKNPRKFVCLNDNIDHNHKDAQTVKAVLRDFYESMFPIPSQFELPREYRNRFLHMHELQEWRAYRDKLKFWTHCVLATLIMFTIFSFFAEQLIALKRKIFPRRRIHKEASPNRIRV

In experiment [2] the target is FTH1-Ferritin heavy chain (human, UniProt P02794 1-183).
Sequence of FTH1-Ferritin heavy chain (P02794 whole entry): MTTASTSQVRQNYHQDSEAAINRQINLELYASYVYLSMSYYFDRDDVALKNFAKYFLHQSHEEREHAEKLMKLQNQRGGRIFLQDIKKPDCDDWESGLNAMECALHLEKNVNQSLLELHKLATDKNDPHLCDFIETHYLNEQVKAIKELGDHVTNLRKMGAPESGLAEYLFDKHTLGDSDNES
Experiment [3] deals with T2, C12orf62-chromosome 12 open reading frame 62 (C12orf62) (human, UniProt Q96I36 1-57).
T2 sequence (looked up): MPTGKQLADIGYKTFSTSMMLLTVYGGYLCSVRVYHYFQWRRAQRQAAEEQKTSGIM

Experiment [4] concerns the target T3, TGDS-TDP-glucose 4,6-dehydratase (TGDS) (human, UniProt O95455 1-350).
T3 sequence (looked up): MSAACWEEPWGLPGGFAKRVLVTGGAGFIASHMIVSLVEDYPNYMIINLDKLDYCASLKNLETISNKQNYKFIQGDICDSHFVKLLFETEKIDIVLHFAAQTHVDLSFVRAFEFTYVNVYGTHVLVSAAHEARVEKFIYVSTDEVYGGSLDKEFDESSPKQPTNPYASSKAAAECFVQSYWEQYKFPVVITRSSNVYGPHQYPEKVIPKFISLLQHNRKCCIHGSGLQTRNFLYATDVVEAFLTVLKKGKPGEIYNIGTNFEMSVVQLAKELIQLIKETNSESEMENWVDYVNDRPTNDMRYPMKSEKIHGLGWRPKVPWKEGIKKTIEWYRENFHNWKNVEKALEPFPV

In experiment [5] the target is T4, RDH11-retinol dehydrogenase 11 (all-trans/9-cis/11-cis) (RDH11) (human, UniProt Q8TC12 1-318, limits assumed).
T4 sequence (looked up): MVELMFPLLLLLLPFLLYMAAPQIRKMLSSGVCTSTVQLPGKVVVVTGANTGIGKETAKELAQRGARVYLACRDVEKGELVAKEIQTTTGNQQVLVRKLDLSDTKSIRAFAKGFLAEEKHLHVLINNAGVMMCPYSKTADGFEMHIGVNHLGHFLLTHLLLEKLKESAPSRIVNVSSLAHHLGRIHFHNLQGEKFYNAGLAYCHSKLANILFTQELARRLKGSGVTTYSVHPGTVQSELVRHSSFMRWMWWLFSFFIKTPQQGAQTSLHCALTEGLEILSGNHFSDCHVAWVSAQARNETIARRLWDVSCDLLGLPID

Experiment [6] addresses T5, LYPLAL1-lysophospholipase-like 1 (LYPLAL1) (human, UniProt Q5VWZ2 1-237).
T5 sequence (looked up): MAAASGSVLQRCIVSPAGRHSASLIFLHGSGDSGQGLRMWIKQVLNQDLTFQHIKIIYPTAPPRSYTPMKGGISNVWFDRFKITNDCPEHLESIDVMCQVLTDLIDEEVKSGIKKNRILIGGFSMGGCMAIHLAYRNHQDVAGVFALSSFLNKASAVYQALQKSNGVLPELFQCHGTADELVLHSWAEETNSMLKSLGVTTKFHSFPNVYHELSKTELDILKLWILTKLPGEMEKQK

In experiment [7] the target is HS3ST1-heparan sulfate (glucosamine) 3-O-sulfotransferase 1 (HS3ST1) (human, UniProt O14792 21-307, limits assumed).
Sequence of HS3ST1-heparan sulfate (glucosamine) 3-O-sulfotransferase 1 (HS3ST1) (O14792 21-307 limits assumed): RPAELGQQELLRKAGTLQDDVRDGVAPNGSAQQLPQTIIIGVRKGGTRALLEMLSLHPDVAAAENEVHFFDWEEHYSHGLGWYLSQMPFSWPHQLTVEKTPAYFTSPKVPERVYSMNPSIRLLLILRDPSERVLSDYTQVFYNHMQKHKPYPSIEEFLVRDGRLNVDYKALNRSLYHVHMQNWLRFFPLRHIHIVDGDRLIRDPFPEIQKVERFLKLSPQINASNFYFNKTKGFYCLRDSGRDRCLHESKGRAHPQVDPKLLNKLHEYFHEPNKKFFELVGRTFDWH
Experiment [8] concerns the target T6, LRRC20-leucine rich repeat containing 20 (LRRC20) (human, UniProt Q8TCA0 1-184, limits assumed).
T6 sequence (looked up): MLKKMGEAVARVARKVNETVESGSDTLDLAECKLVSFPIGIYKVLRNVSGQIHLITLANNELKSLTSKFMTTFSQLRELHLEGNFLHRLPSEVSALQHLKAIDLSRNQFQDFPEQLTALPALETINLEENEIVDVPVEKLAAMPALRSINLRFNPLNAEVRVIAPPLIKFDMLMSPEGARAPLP

B1: 3× Flag-3×MBT (designed binder)
chain: EEWSSSQPATGEKKECWSWESYLEEQKAITAPVSLFQDSQAVTHNKNGFKLGMKLEGIDPQHPSMYFILTVAEVCGYRLRLHFDGYSECHDFWVNANSPDIHPAGWFEKTGHKLQPPKGYKEEEFSWSQYLRSTRAQAAPKHLFVSQSHSPPPLGFQVGMKLEAVDRMNPSLVCVASVTDVVDSRFLVHFDNWDDTYDYWCDPSSPYIHPVGWCQKQGKPLTPPQDYPDPDNFCWEKYLEETGASAVPTWAFKVRPPHSFLVNMKLEAVDRRNPALIRVASVEDVEDHRIKIHFDGWSHGYDFWIDADHPDIHPAGWCSKTGHPLQPPLGPREPSSASPGG
notes: also called Flag-tagged 3×MBT; 3xFlag-3xMBT; not shown: made by PreScission cleavage of GST-3× Flag-3×MBT
B1: the “GST Average SNR” value amounted to 1.15 in experiment [1]; 0.815 in experiment [2]; 0.575 in experiment [3]; 1.15 in experiment [4]; 0.0685 in experiment [5]; 0.066 in experiment [6]. Further, the “GST Average SNR” value in experiment [7] is 0.092; in experiment [8], 1.4.
